The text below walks through data of the supplement of paper PMC12042874.

± gives the uncertainty stated by the source.

The nature of this data set: amyloid nucleation score (Sup35N fusion, yeast selection) (log enrichment); library NNK2; higher = more nucleation; inactive = no reads after selection. Put shortly: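 DiMSum was used to calculate nucleation scores as log enrichment of output over input reads, centred on the mode score of non-aggregating sequences. Sequences with fewer than 100 input reads were not scored. Input and output came from Illumina sequencing of plasmid inserts in psi-negative yeast expressing peptides of 20 random codons fused to Sup35N, induced 24 hours with 100 μM copper sulfate and then grown 7 days at 30°C on medium lacking adenine and uracil.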
As for NNRWFRRGLGLSLDWTDCLS, the amyloid nucleation score is -0.492 ± 1.1.
Turning to NNRWVRKVSDYRVSC, the amyloid nucleation score worked out at 0.243 ± 0.64.
Then NNSPVSPDGCLLGSSVQYWY, with -0.375 ± 1.1.
With NNSQEFSSYTWMNYLLIVKW, the amyloid nucleation score is -1.02 ± 1.
Substance NNSWQINIYNGVTRLIRVRA returned an amyloid nucleation score of 4.7 ± 0.039.
On to NNSYTGPVSCNHVAGCGTGH, for which the amyloid nucleation score is -0.387 ± 1.1.
In the case of NNYATCNVHCMFMMI, the amyloid nucleation score came to 10.18 ± 0.05.
On to NNYIVTW, for which the amyloid nucleation score is 0.233 ± 0.74.
Turning to NPGGMQDEQEVVIWAPTRFL, the amyloid nucleation score is -0.161 ± 0.39.
In the case of NPLQRTVYWFIIKRDCFHSV, the amyloid nucleation score was -1.46 ± 0.45.
In the case of NQCISDPNSCSSCALL, the amyloid nucleation score entry was “inactive”.
The result for NQLIGHVFSFVDKSKSFSSS reads 0.243 ± 0.56; that for NQQPKSLLYVSRRMQGTMIF, 0.089 ± 0.8; that for NRAVGLLRYTMVMGT, 0.026 ± 1.1.
For NRCRNNGQLRGQCICGSVCL, the amyloid nucleation score is -0.284 ± 0.39.
Then NRDKF, with -1.07 ± 0.28.
As for NREIMMD, the amyloid nucleation score is -0.184 ± 1.1.
Substance NRETGANCARMPKVNVWEQQ displayed an amyloid nucleation score of 0.865 ± 0.25.
Then NRKCSAESMTEGVRPLDSHY, with “inactive”; and NRKLWVYIFSELSDDGLQFR, with “inactive”; and NRNLDGFLPWNVHEAVGL, with -0.003 ± 0.42.
In the case of NRNQRSVDRCGFSWYGTQIG, the amyloid nucleation score is 1.3 ± 0.32.
Regarding NRPMEGRLKWSMTVLIVSLY, the amyloid nucleation score was -0.187 ± 0.65.
As for NRSLGNHAEYNHASRLKGDS, the amyloid nucleation score is -0.658 ± 0.31.
With NRTCVLSNPFPFPHNIPGVC, the amyloid nucleation score is -0.815 ± 0.54.
NRWAYGVFWHSWFIKSHFG displayed an amyloid nucleation score of 0.14 ± 1.
NRWMRGDTVWNVGWWSPNWG had an amyloid nucleation score of 0.173 ± 0.46.
Then NSELLFLGVEWNRT, with -0.142 ± 0.79; and NSFYRCYVRCIVSVRFLCCH, with 5.008 ± 0.035; and NSHFALDGKSW, with -0.711 ± 0.39.
The result for NSNLLNTLFWVVT reads 4.03 ± 0.13; that for NSNTKTSPIISW, “inactive”; that for NSRLLVDGHFIRTFRAFWVN, -1.12 ± 0.56.
For the substance NSSEINHSKG, the amyloid nucleation score is -0.788 ± 1.1.
Consider NSSTTHAGLVYYYSGKGPRV, for which the amyloid nucleation score entry was “inactive”.
Take NSSVCVRNRCGVWIDLKGII: the amyloid nucleation score came out at 5.06 ± 0.095.
For NSSYTVGHGPDT, the amyloid nucleation score result is “inactive”.
NSTKTRLSSDTTLDFLEATR: the amyloid nucleation score is -0.299 ± 0.27.
NSVFAGRRTRTSFP yielded an amyloid nucleation score of 0.227 ± 0.62.
Take NSVFFY: the amyloid nucleation score was -1.63 ± 1.1.
NSVLVLAWWVNANCGLREGG returned an amyloid nucleation score of 5.454 ± 0.041.
With NSVTNNIRSWIPHLDKGYGG, the amyloid nucleation score is -0.487 ± 1.1.
In the case of NSWASPTVVFIRPVHMLLVL, the amyloid nucleation score was 0.158 ± 0.25.
The result for NSYFGRAFNVSMPYKLRWKF reads -1.41 ± 1.1; that for NTEFIFQELRVMSHEVCIHI, “inactive”; that for NTELSVMPGRLSNFIKLNVT, -0.248 ± 0.65.
As to NTGSLRYWHCVSSGNSTTGR, the amyloid nucleation score entry is “inactive”.
The result for NTGSLWG reads -1.41 ± 1.1.
Regarding NTLRMIPADFPSGRLEQTKV, the amyloid nucleation score amounted to 0.552 ± 0.4.
NTLSPFQIEFGGWLMGVLFK registered an amyloid nucleation score of 0.611 ± 0.81.
With NTMLAFAKKSRMHFSLLLLV, the amyloid nucleation score is -0.022 ± 0.37.
As to NTNAHVRMVDLVSGCASQWL, the amyloid nucleation score was 1.75 ± 0.3.
For NTRCRSVTLMLGFSMESKVH, the amyloid nucleation score is 0.76 ± 0.54.
With NTSHGFQSNPRGAYERILCV, the amyloid nucleation score was -0.961 ± 0.63.
In the case of NTWYLTKADLDRVGAVMVQT, the amyloid nucleation score entry is “inactive”.
As to NVFFSFSMYKDAYNE, the amyloid nucleation score was -0.937 ± 0.54.
With NVFLLSVREMSSFLRTTTLG, the amyloid nucleation score was 1.24 ± 0.17.
Regarding NVFLRPSFRGVHK, the amyloid nucleation score turned out to be 2.05 ± 0.092.
NVFVCPAFQRTWVWMAVMSW: the amyloid nucleation score entry was “inactive”.
Then NVHRRMSEYVCVDRWEEWVR, with 0.811 ± 0.67; and NVITRGM, with 0.899 ± 0.38.
Then NVKICFCSVMSSTCRYNRT, with 7.878 ± 0.064; and NVLRMMC, with -0.286 ± 0.27; and NVMKSLFGRC, with 0.359 ± 0.48.
Take NVNMVMNNSGKSRLCISENY: the amyloid nucleation score was -0.19 ± 1.
NVQALMN gave an amyloid nucleation score of 0.012 ± 0.74.
Turning to NVVSEEIMVCIVVSDLKRFR, the amyloid nucleation score is 0.619 ± 0.29.
In turn, NWASKTFYGSYGSRYCQFGE displayed an amyloid nucleation score of 1.07 ± 0.59.
Consider NWIPYVWGWIALIVGSDF, for which the amyloid nucleation score is -0.158 ± 0.55.
On to NWLSMWLWFVCMSLVCMVFR, for which the amyloid nucleation score stood at 1.77 ± 0.16.
Then NWMHC, with 1.39 ± 0.42; and NWNVRRYVTPAFEFRGCV, with 0.833 ± 0.74; and NWPNPVSLMSRIDFRMV, with -0.131 ± 0.31.
For the substance NWSHELQIQLCAMAYREWSE, the amyloid nucleation score was 5.777 ± 0.038.
Then NWSNLEWWL, with 0.054 ± 0.77; and NWVSIEHNYIFVLRYPENAS, with 8.465 ± 0.042; and NYAPGFTWFSMTNKKDFNVS, with “inactive”.
NYCRTIFYYCAMIYFPCLAE: the amyloid nucleation score amounted to 1.77 ± 0.22.
Then NYDSSDLTLFDVSRRPLLER, with “inactive”; and NYFGKLLWLSLHDTCIVTF, with “inactive”; and NYVCWISGTTGLVM, with -0.319 ± 0.76.
The result for NYWWYVPW reads 0.527 ± 0.51.
Then NYYCFQIRMLENNEEVFGIG, with “inactive”; and PAERSCGQCFQEFSWY, with 0.102 ± 1.1; and PATVVILS, with 1.23 ± 0.45.
For PCLMVIRRWMITVFYQKLSG, the amyloid nucleation score amounted to 0.181 ± 0.2.
PCLRKNRYRLWLYTMVIQTQ came in with an amyloid nucleation score of 0.806 ± 0.32.
The substance PCRVYHLCNYKLAWRKGGWL showed an amyloid nucleation score of 0.927 ± 0.2.
The substance PCSRPTLLPCHCGTTTTSHI returned an amyloid nucleation score of 2.4 ± 0.1.
The substance PCVLKLRSSSKSISCSWGVS returned an amyloid nucleation score of 3.85 ± 0.074.
Take PDFLAVGHVSTFVHFTVETG: the amyloid nucleation score is 1.16 ± 0.38.
Regarding PDLCEFLMLYMMITLNFCIN, the amyloid nucleation score was -0.214 ± 1.
With PEKTFICCLAVRDMQNRGVS, the amyloid nucleation score was -0.032 ± 1.1.
Regarding PFILLGTPELVTNGEHAERG, the amyloid nucleation score was 0.647 ± 0.66.
As to PFPSPSDSGTVAA, the amyloid nucleation score was determined as 0.737 ± 0.54.
The substance PFQVFILHYA yielded an amyloid nucleation score of 6.356 ± 0.042.
Then PGHSWMMSDDPDRYMNNLTV, with -0.053 ± 0.79.
Then PGTFFSLSKWWFIDGVTEPG, with 0.178 ± 0.77.
As to PGYNSFLWWAAME, the amyloid nucleation score is -0.271 ± 0.34.
In turn, PHDGRNWFSVSDLMIGSDVG returned an amyloid nucleation score of 0.505 ± 0.36.
For the substance PHLEGVSCVVVKHQLRS, the amyloid nucleation score was 0.82 ± 0.17.
The result for PHSLVLSGWHNLDAFFNATL reads “inactive”.
Take PHVRTFRRFRWMY: the amyloid nucleation score was -0.251 ± 0.39.
With PIDKSVAVLDRREMSDQRIN, the amyloid nucleation score is -0.753 ± 0.34.
Then PILGGEFDAGWRNFLFWKGW, with 0.448 ± 0.66; and PIYCINRFDNWYLL, with 5.94 ± 0.041.
Regarding PKGNSRYMRLIFDAQLSYTG, the amyloid nucleation score turned out to be 1.25 ± 0.13.
The substance PKIMKFGKCYTP returned an amyloid nucleation score of 0.065 ± 0.28.
The substance PKPLVGMLCCHSMTRGKVTL displayed an amyloid nucleation score of 3.28 ± 0.07.
As to PKSHFSRFGYYKVFQRSGRS, the amyloid nucleation score is -0.92 ± 1.1.
PKSYWLSISRLKPVSQYYLR had an amyloid nucleation score of 1.21 ± 0.24.
Then PLDGEIRREHVLAYEE, with -0.454 ± 0.48; and PLHHSLRTYVALGLR, with 0.306 ± 0.65; and PLHRWLQDR, with -0.037 ± 0.79.
Regarding PLLFTWAVLINALWVKSTPG, the amyloid nucleation score was -0.19 ± 1.
The result for PLVAMGMIINNI reads -1.74 ± 0.48; that for PLYEELVWGRFRLMVYTGRF, -0.193 ± 0.76; that for PMFCSLVLRI, -0.383 ± 0.41.
For PMRMKFCQWLFHPP, the amyloid nucleation score was -0.983 ± 0.61.
For PNGFVFSCNRSPMAGMGIDE, the amyloid nucleation score is -2.14 ± 1.1.
PNMGLVNCRRNFCCRLWRIC: the amyloid nucleation score was -0.469 ± 1.1.
On to PNNINRFRRSYFY, for which the amyloid nucleation score was -1.14 ± 0.49.
In turn, PNSSNPNPMRLVFRSMSFRL yielded an amyloid nucleation score of 0.269 ± 0.64.
PNVCKLYMWQFGTLNQAPQR gave an amyloid nucleation score of 8.399 ± 0.065.
On to PPVMFLRWCVQAGSPWTNHC, for which the amyloid nucleation score was -0.105 ± 1.1.
For PQVNPYLNLCRLTQDMLLHR, the amyloid nucleation score turned out to be 0.832 ± 0.15.
Then PRKDLPEYSLYSDLEPLVCN, with -1.25 ± 0.62; and PRLNISLVMCNMFVGRGRFH, with 8.705 ± 0.039; and PRRNTADCIGCTDRTGRRRC, with 0.6 ± 0.39.
As for PRVRSAVQSLRGVKYCLGRR, the amyloid nucleation score was -0.531 ± 0.63.
Regarding PSCFQDYKWQMWQLTRAWNF, the amyloid nucleation score is -0.758 ± 0.55.
For the substance PSGFRSLLFEVHHFSRWAYD, the amyloid nucleation score stood at 0.691 ± 0.15.
Take PSKPC: the amyloid nucleation score was -1.72 ± 0.75.
Regarding PSLTVPGVSRYCFS, the amyloid nucleation score was -1.29 ± 0.75.
The result for PSLVRRNTSLCL reads 0.325 ± 0.41; that for PSVFEGRK, -0.843 ± 0.63.
PSVKIRFQVAYWLYRSLMMS: the amyloid nucleation score is 0.877 ± 0.55.
For the substance PTRKSIYSLPRARSLIPQNT, the amyloid nucleation score is -1.26 ± 1.1.
